The text below walks through data of the RNAGym collection of RNA variant scans (doi:10.1073/pnas.2313332121).

B1: TPR t1 (parent)
chain: GACCAAUCUGCCCUCAGAGCUCGAGAACAUCUUCGGAUGCAGAGGAGGCAGGCUUCGGUGGCGCGAUAGCGCCAACGUCCUCAACCUCCAAUGCAUCCCACCACAUGAUGAUGCCUGAAGAGCCUUGGUUUUUUG

In this series the parent is B1. The experiment in a line: polymerase ribozyme fitness, log enrichment relative to wild type (log ratio); higher = more active; in vitro selection for triplet polymerase activity. The procedure, abridged:
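Each subunit of a heterodimeric triplet polymerase ribozyme was represented by a PCR-built, transcribed mutant library that underwent triplicate single-round in vitro selection with frozen incubation at −7 °C. Extended constructs were recovered by gel excision, streptavidin-bead capture and RT-PCR, and Illumina sequencing of input and output libraries kept genotypes with ≥10 input reads and ≥1 read per output. Fitness is the logarithm of genotype enrichment relative to wild-type enrichment, from inverse-variance-weighted replicate averages, with a logarithm base of 2.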
In the case of GACCAAUCUGCCCUCAGAGCUCGAGAUCAUCUUCGGAUGCAGAGGAGGCAGGAUUCGGUGGCGCGAUAGCGCCAACGUCCUCAACCUCCAAUGCAUCCCACCACAUGAUGAUGCCUGAAGAGCCUUGGUUUUUUG [A27U C53A], the “polymerase ribozyme fitness (log ratio)” value is -3.49.

As to GACCAAUCUGCCCUCAGAGCUCGAGAUCAUCUUCGGAUGCAGAGGAGGCAGGCUUCGGUGGCGUGAUAGCGCCAACGUCCUCAACCUCCAAUGCAUCCCACCACAUGAUGAUGCCUGAAGAGCCUUGGUUUUUUG [A27U C64U], the “polymerase ribozyme fitness (log ratio)” value was -2.76.

Consider GACCAAUCUGCCCUCAGAGCUCGAGAUCAUCUUCGGAUGCAGAGGAGGCAGGCUUCGGUGGCGCGAUAGCGCUAACGUCCUCAACCUCCAAUGCAUCCCACCACAUGAUGAUGCCUGAAGAGCCUUGGUUGUUUG [A27U C73U U131G], for which the “polymerase ribozyme fitness (log ratio)” value is -1.71.

GACCAAUCUGCCCUCAGAGCUCGAGAUCAUCUUCGGAUGCAGAGGAGGCAGGCUUCGGUGGCGCGAUAGCGCCAACGUCCUCACCCUCCAAUGCAUCCCACCACAUGAUGAUGCCUGAAUAGCCCUGGUUUUUUG [A27U A84C G120U U125C]: the “polymerase ribozyme fitness (log ratio)” value was -1.52.

As to GACCAAUCUGCCCUCAGAGCUCGAGAUCAUCUUCGGAUGGAGAGGAGGCAGGCUUCGGUGGCGCGAUAGCGCCAACGUCCUGAACCUCCAAUGCAUCCCACCACAUGAUGAUGCCUGAAGAGCCUUGGUUUUUUG [A27U C40G C82G], the “polymerase ribozyme fitness (log ratio)” value is -5.92.

Take GACCAAUCUGCCCUCAGAGCUCGAGAUCAUCUUCGGAUGCAGAGGAGGCAGGCUUGGGUGGCGCGAUAGCGCCAACGUCCUCAACCUCCAAUGCAUCCCACCACAUGAUGAUGCCUUAAGAGCGUUGGUUUUUUG [A27U C56G G117U C124G]: the “polymerase ribozyme fitness (log ratio)” value is -4.92.

Regarding GACCAAUCUGCCCUCAGAGCUCGAGAUCAUCUUCGGAUGCAGAGGAGGCAGGCUUAGGUGGCGCGAUAGUGCCAACGUCCUCAACCUCCAAUGCAACCCACCACAUGAUGAUGCCUGAAGAGCCUUGGUUUUUUG [A27U C56A C70U U96A], the “polymerase ribozyme fitness (log ratio)” value was -5.71.

Turning to GACCAAUCUGCCCUCAGAGCUCGAGAUCAUCUUCGGAUGCAGAGGAGGCAGGCUUCGGUGGCGUGAUAGCGCCAACGCCCUCAACCUCCAAUGCAUCCCACCACAUGAUGAUGCCUGAAGAGCCUUGGUUUUUUG [A27U C64U U78C], the “polymerase ribozyme fitness (log ratio)” value is -3.83.

For GACCAAUCUGCCCUCAGAGCUCGAGAUCAUCUUCGGAUGCAGAGGAGGCAGGCUUCGGUGGCGCGAUAGCGACAACGUCCUCAACCUCCAAUGCAACCCACCACAUGAUGAUGCCUGAAGAGCCUUGGUUUUUUG [A27U C72A U96A], the “polymerase ribozyme fitness (log ratio)” value is -4.21.

For GACCAAUCUGCCCUCAGAGCUCGAGAUCAUCUUCGGAUGCAGAGGAGGCAGGCUUCGGUGGCGCGAUAGCGACAACGUCCUCAACCUCCAAUGCAUCCCACCACAUGAUGAUGCCUGAAGAGCCUUGGUUUUUUG [A27U C72A], the “polymerase ribozyme fitness (log ratio)” value was -2.61.

Consider GACCAAUCUGCCCUCAGAGCUCGAGAUCAUCUUCGGAUGCAGAGGAGGCAGGCUUCGGUGGCGCGAUAGCGCCAACGUCAUCAACCUCCAAUGCAUCCCACCACAUGAUGAUGCCUGAAGAGCCUUGGUUUUUUG [A27U C80A], for which the “polymerase ribozyme fitness (log ratio)” value is -5.56.

On to GACCAAUCUGCCCUCAGAGCUCGAGAUCAUCUUCGGAUGCAGAGGAGGCAGGCUUCGGUGGCGCGAUAGCGCCAACGUCUUCAACCUCCAAUGCAUCCCACCACAUGAUGAUGCCUGAAGAGCCUUGGUUUUUUG [A27U C80U], for which the “polymerase ribozyme fitness (log ratio)” value is -3.34.

In the case of GACCAAUCUGCCCUCAGAGCUCGAGAUCAUCUUCGGAUGCAGAGGAGGCAGGCUUCGGUGGCGCGAUAGCGCCAACGUCCUCAACCUCCAAUGCAUCCCACCACAUGAUGAUGUCUGAAGAGCCUUGGUUUUUUG [A27U C114U], the “polymerase ribozyme fitness (log ratio)” value was -4.39.

As for GACCAAUCUGCCCUCAGAGCUCGAGAUCAUCUUCGGAUGCAGAGGAGGCAGGCUUCGGUGGCGCGAUAGCGCCAACGUGCUCAACCUCCAAUGCAUCCCACCACAUGAUGAUGCCUGAAGAGCCUUGGUUUUUUG [A27U C79G], the “polymerase ribozyme fitness (log ratio)” value was -4.46.

For the variant GACCAAUCUGCCCUCAGAGCUCGAGAUCAUCUUCGGAUGCAGAGGAGGCAGGCUUCGGUGGCGCGAUAGCGCCAACGUACUCAACCUCCAAUGCAUCCCACCACAUGAUGAUGCCUGAAGAGCCUUGGUUUUUUG [A27U C79A], the “polymerase ribozyme fitness (log ratio)” value is -3.85.

As for GACCAAUCUGCCCUCAGAGCUCGAGAUCAUCUUCGGAUGGAGAGGAGGCAGGCUUCUGUGGCGCGAUAGCGCCAACGUCCUCAACCUCCAAUGCAUCCCACCACAUGAUGAAGCCUGAAGAGCCUUGGUUUUUUG [A27U C40G G57U U112A], the “polymerase ribozyme fitness (log ratio)” value was -3.

For GACCAAUCUGCCCUCAGAGCUCGAGAUCAUCUUCGGAUGCAGAGGAGGCAGGCUUCGGUGGCGCGAUAGCGCCAACGUCCUCAACCUCCAAUGCCUCCCACCACAUGAUGAUGCCUGAAGAGCCUUGGUUUUUUG [A27U A95C], the “polymerase ribozyme fitness (log ratio)” value is -4.26.

As to GACCAAUCUGCCCUCAGAGCUCGAGAUCAUCUUCGGAUGCAGAGGAGGCAGGCUUCGGUGGCGCGAUAGCGCCAAUCUCCUCAACCUCCAAUGCAUCCCACCACAUGAUGAUGCCUGAAGAGCCUUGGUUUUUUG [A27U C76U G77C], the “polymerase ribozyme fitness (log ratio)” value was -3.99.

As for GACCAAUCUGCCCUCAGAGCUCGAGAUCAUCUUCGGAUGCAGAGGAGGCAGGCUUCGGUGGCGCGAUAGCGCCAAAGUCCUCAACCUCCAAUGCAUCCCACCACAUGAUGAUACCUGAUGAGCCUUGGUUUUUUG [A27U C76A G113A A119U], the “polymerase ribozyme fitness (log ratio)” value was -6.73.

Consider GACCAAUCUGCCCUCAGAGCUCGAGAUCAUCUUCGGAUGCAGAGGAGGCAGGCUUCGGUGGCGCGAUAGCGCCAACGUCCUUAACCUCCAAUGCAUCCCACCACAUGAUGAUGCCUGAAGAGCCUUGGUUUUUUG [A27U C82U], for which the “polymerase ribozyme fitness (log ratio)” value is -2.99.

As for GACCAAUCUGCCCUCAGAGCUCGAGAUCAUCUUCGGAUGCAGAGGAGGCAGGAUUCGGUGGCGCGAUAGCUCCAACGUCCUCAACCUACAAUGCAUCCCACCACAUGAUGAUGCCUCAAGAGCCUUGGUUUUUUG [A27U C53A G71U C88A G117C], the “polymerase ribozyme fitness (log ratio)” value is -6.86.
